In PMC8299219 (Cell, 2021):

Target: SARS-CoV-2 S ectodomain trimer, prefusion-stabilized, 2P variant (Wrapp et al., 2020) (SARS-CoV-2, Wuhan-Hu-1, UniProt P0DTC2, stabilised)

Binder | binding result
C89A5 (antibody, V domains shown) VH: QVQLVESGGGVVQPGRSLRLPCAASGFSFSGYAMHWVRQAPDKGLEWMAVISFDGSTKTYADSVRGRFTISRDNSKNTLYLQIHTLRTEDTAVYYCARGGGGGDGAFDNWGGGTMVTVSS VL: DVVMTQSPLSLPVTLGQPASISCRSSQSLVYSDGNTYLIWFQQRPGQSPRRLIYKVSNRDSGVPDRFSGSGSGTDFTLKISRVEADDVGVYYCMQTTHWPYTFGQGTKLEIK | binds
C7A2 (antibody, V domains shown) VH: EVQLLESGGGLVQPGGSLRLSCAASGFIFSNYVVSWVRQAPGKGLEWVSGISVNGDTTFYADSVKGRFTISRDNSKNTLYLQMNSLRAEDTAVYYCAKVRGYCSGGRGCMDVWGQGTTVTVSS VL: DIQLTQSPSSLSASVGDRVTITCQASQDIGNTLAWYQQKPGKAPNLLIYDASSLQSGVPSRFSGSVSGTDFTLTITSLQLEDFATYYCQQFNTYPALTFGGGTKVEIK | binds
C7I5 (antibody, V domains shown) VH: EVQLLESGGGLVQPGGSLRLSCAASGFIFSNYVVSWVRQAPGKGLEWVSGISVNGDTTFYADSVKGRFTISRDNSKNTLYLQMNSLRAEDTAVYYCAKVRGYCSGGRGCMDVWGQGTTVTVSS VL: DIQLTQSPSSLSPSVGDRVTITCRASQDIGNTLAWYQQKPGKAPNLLIYDASSLQSGVPSRFSGTVSGTDFTLTITSLQPEDFATYFCQQFNTYPALTFGGGTKVEIK | binds
C15C12 (antibody, V domains shown) VH: EVQLLESGGGLVQPGGSLRLSCAASAFTFTNYDMNWVRQAPGKGLEWVSTISGSGDITYYADFVKGRFTISRDNSKNTLNLQMNSLRADDTAVYYCAKDFARRGYNGYEEKFISMFGGVIADYGMDVWGQGTTVTVSS VL: EIVLTQSPTTLSLSPGERVTLSCRASQSISSYLAWYQQKPGQAPRLLIYRASNRATGISARFSGSGSGTDFTLTISSLEPEDFAVYYCQQRSNWPLTFGGGTKVEIK | binds
G32A3 (antibody, V domains shown) VH: QVQLVQSGAEVKRPGASVKVSCKASGYTFTSYGITWVRQAPGQGLEWMGWISAYNGNTNYAQKLQGRVTMTTDSSTSTAYMELRSLRSDDTAVYYCARTPNSVITMIVVVTQTLDYWGQGTLVTVSS VL: QSALTQPASVSGSPGQSITISCTGTSSDVGGYNYVSWYQQHPGKAPKLMIYEVSNRPSGVSNRFSGSKSGNTASLTISGLQAEDEADYYCSSYTSSSTRVFGGGTKLTVL | binds
C163D5 (antibody, V domains shown) VH: EVQLVESGGGLVQPGGSLRLSCAASGFTFSSYWMHWVRQAPGKGLVWVSRTNSDGSSTNYADSVKGRFTISRDNAKNTLYLQMNSLRAEDTAVYYCARPQFYVWGSDRADYGMDVWGQGTTVTVSS VL: QSALTQPASVSGSPGQSITISCTGTSSDVGGYNSVSWYQQHPGKAPKLMIYEVSNRPSGVSNRFSGSKSGNTASLTISGLQAEDEADYYCSSYRSSSTLVFGGGTKLTVL | binds
C12E6 (antibody, V domains shown) VH: QVQLQESGSGLVKPSQTLSLTCAVSGGSISSGGYSWSWIRQPPGKGLEWIGYIYHSGSTYYNPSLKSRVTISVDRSKNQFSLKLSSVTAADTAVYYCARSGFLEWLRRVDAFDIWGQGTMVTVSS VL: QSALTQPASVSGSPGQSITISCTGTSSDVGGYNYVSWYQQHPGKAPKLMIYDVSNRPSGVSNRFSASKSGNTASLTISGLQAEDEADYYCSSYTSSSTRVFGGGTKLTVL | binds
C83A4 (antibody, V domains shown) VH: QVQLQESGPGLVKPSQTLSLTCTVSGGSISSGGYYWSWIRQHPGKGLEWIGYIYYSGSTYYNPSLKSRVTISVDTSKNQFSLKLTSVTAADTAVYYCASEPTFRQSSISWYHYGMDVWGQGTTVTVSS VL: QSALTQPASVSGSPGQSITISCTGTSSDVGRYNYVSWYQQHPGKAPKLMIYDVSNRPSGVSNRFSGSKSGNTASLTISGLQAEDEADYYCSSYTSSSTLVFGTGTKVTVL | binds
C18C8 (antibody, V domains shown) VH: EVQLVESGGGLVQPGRSLRLSCTTSGFTFGDYAMSWVRQAPGKGLEWVGFIRSKAYGGTTEYAASVKGRFTISRDDSKSIAYLQMNSLKTEDTAVYCCTRGLKVEPYYFDYWGQGTLVTVSS VL: not shown | binds
C12B8 (antibody, V domains shown) VH: QVQLVESGGGVVQPGRSLGLSCAASGFTFSSYAMHWVRQAPGKGLEWVAVISYDGSNKADSVKGRFTISRDNSNNTLYLQMNSLRAEDTAVYYCAREGVVVTAPLDYWGQGTLVTVSS VL: not shown | binds
C83B7 (antibody, V domains shown) VH: QVQLVQSGAEVKKPGASVKVSCKASGYTFTSYYLHWVRQAPGQGLEWMGIINPSGGSTSYAQKFQGRVTMTRDTSTSTVYMELRSLRSEDTAVYYCARDSAPRDYDFWSGYYFGVNGKGSSMDVWGQGTTVTVSS VL: QSALTQPPSASGSPGQSVTISCTGTSSDVGGYNYVSWYQQHPGKAPKLMIYEVSKRPSGVPDRFSGSKSGNTASLTVSGLQAEDEADYYCSSYAGSNNYVFGTGTKVTVL | binds
G32Q6 (antibody, V domains shown) VH: EVQLLESGGGLVQPGGSLRLSCAASGFTFSNYAMNWVRQAPGKGLEWVSGISGNGVNTFYADSVKGRFTISRDNSRNTLYLQMNSLRAEDTAVYYCAKAIQTYSNYVLGADYWGQGTLVTVSS VL: QSALTQPRSVSGSPGQSVTISCTGTNSDVGNYNFVSWYQQHPGRAPKLMIYDVSKRPSGVPDRFSGSKSDNTASLTISGLQAEDQADYYCCSYATSYTFRVVFGGGTKLTVL | binds
C53F12 (antibody, V domains shown) VH: QVQLVQSGAEVKKPGSSVKVSCKASGGTFSSYAISWVRQAPGQGLEWMGGIIPIFGTANYAQKFQGRVTITADESTSTAYMELSSLRSEDTAVYYCARMYYYVSGSYHYFDYWGQGTLVTVSS VL: EIVLTQSPATLSLSPGERATLSCRASQSVSSYLAWYQQKPGQAPRLLIYDASNRATGIPARFSGSGSGTDFTLTISSLEPEDFAVYYCQQRSNWPPALTFGGGTKVEIK | binds
C102B1 (antibody, V domains shown) VH: QVQLVQSGAEVKKPGSSVKVSCKASGGTFSSYAISWVRQAPGQGLEWMGGIIPIFGTANYAQKFQGRVTITADESTSTAYMELSSLRSEDTAVYCCARDRGYCTGGVCSNYYYGIDVWGQGTTVTVSS VL: EIVLTQSPATLSLSPGERATLSCRASQSVSSYLAWYQQKPGQAPRLLIYDASNRATGIPARFSGSGSGTDFTLTISSLEPEDFAVYYCQQRSNWPPSYTFGQGTKLEIK | binds
C107A1 (antibody, V domains shown) VH: QVQLVESGGGVVQPGRSLRLSCAASGFTFSSYGMHWVRQAPGKGLEWVAVISYDGSNKYYADSVKGRFTISRDNSKNTLYLQMNSLRAEDTAMYYCAKDGSGSYSWFDPWGQGTLVTVSS VL: EIVMTQSPATLSVSPGERATLSCRASQSVSSNLAWYQQKPGQAPRLLIYGASTRATGIPARFGGSGSGTEFTLTISSLQSEDFAVYYCQQYNNGFTFGPGTKVDIK | binds
C15C9 (antibody, V domains shown) VH: QVQLQQWGTGLLKPSETLSLTCAVYGGSFSGYYWTWIRQPPGKGLEWIGEINHSGTTTYNPSLKSRVTISVEKSENQFSLKLNSVTAADTAVYYCARGSRCSSASCLFYYFYYIDVWGKGTTVTVSS VL: not shown | binds
C12D2 (antibody, V domains shown) VH: EVQLVESGGGLVQPGGSLRLSCAASGFTFSSYWMSWVRQAPGKGLEWVANIKQDGSEKYYVDSVKGRFIISRDNAKNSLYLQMNSLRAEDTAVYYCARDQRRFLEWLSYYYYMDVWGKGTTVTVSS VL: not shown | binds
C81A10 (antibody, V domains shown) VH: QVQLVQSGAEVKKPGSSVKVSCKASGGTFRSYAISWVRQAPGQGLEGMGGIIPIFGTTNYAQKFQGRVTITADESTSTAYMELSSLRSEDTAVYYCARSEWGDGYNQYYFDQWGQGALVTVSS VL: DIQMTQSPSSLSAFVGDRVTITCRASQSISRYLNWYQQKPGKAPKVLIYAASSLQSGVPSRFSGSGSGTDFTLTISSLQPEDFATYYCQQSYSTLTFGGGTKVEIK | binds
C15E7 (antibody, V domains shown) VH: QVQLQQWGAGLLKPSETLSRTCAVYGGSFSGYYWTWIRQPPGMALEWIGDINHGGVTNYNPSLKSRVTISVDTSKNQFSLRLTSVTAADTAVYYCARRLLGDPRPASSSLSLRRVSYMDVWDKGTTVTVSS VL: DIQMTQSPSSMPASVGDRVTITCRASQSISNYLNWYQQEPGRAPKLLIYGASSLQSGVPSRFGGSGSGTEFTLTITALQPEDSATYYCQQIHGAPPITFGQGTRLEIK | binds
C93D10 (antibody, V domains shown) VH: QVQLVQSGAEVKKPGASVKVSCKASGYTFTSYYMHWVRQAPGQGLEWMGIINPSGGSTSYAQKFQGRVTMTRDTSTSTVYMELSSLRSEDTAVYYCARDPSSDYDFWSGWGNQYYYYGMDVWGQGTTVTVSS VL: DIQLTQSPSFLSASVGDRVTITCRASQGISSYLAWYQQKPGKAPKLLIYAASTLQSGVPSRFSGSGSGTEFTLTISSLQPEDFATYYCQQLNSYPFTFGPGTKVDIK | binds
C15C7 (antibody, V domains shown) VH: QVQLVESGGGVVQPGRSLRLSCAASGFTFSSYGMHWVRQAPGKGLEWVAVISYDGSNKYYADSVKGRFTISRDNSKNTLYLQMNSLRAEDTAVYYCAKDAYYYDSSGYYPRDYYYYYYYMDVWGKGTTVTVSS VL: not shown | binds
C83A5 (antibody, V domains shown) VH: QVQLVESGGGVVQPGRSLRLSCAASRFTFSSYGMHWVRQAPGKGLEWVAVIWFDGTNKYYADSVKGRFTISRDNSKNTLYLQMNSLRVEDTAVYYCARDGAYYDRSAYYYRLKFYFDFWGQGTLVTVSS VL: SYELTQPPSVSVSPGQTARITCSGDALPNQYVYWYHQKPGQAPVLVIYKDSERPSGIPERFSGSSSGTTVTLTISGVQAEDEADYYCQSADSSGNIGVFGGGTKLTVL | binds
C53E12 (antibody, V domains shown) VH: QVQLVESGGGVVQPGRSLRLSCAASGFTFSSYGMHWVRQAPGKGLEWVAVISYDGSNKYYVDSVKGRFTISRDNSKNTLYLQMNSLRAEDTAVYYCAKGTEIVVVPADYFDYWGQGTLVTVSS VL: EIVLTQSPATLSLSPGERATLSCRASQSVSSYLAWYQQKPGQAPRLVIYDASNRATGIPARFSGSGSGTDFTLTISSLEPEDFAVYYCQQRSNWPGFTFGPGTKVDIK | binds
